What was measured:
[1] = target: T1, human CD71 (transferrin receptor protein 1, TfR1) on human cell lines (human, UniProt P02786 1-760); assay: FACS on HCC1806 cells
T1 construct: whole, on cells; also called huCD71
Method: (§1) In this study, the binding of the antibodies of the present disclosure to the indicated cell lines were performed using a standard FACS labelling method.

[2] = target: T1, human CD71 (transferrin receptor …); assay: FACS on BxPC3 cells
[3] = target: T1, human CD71 (transferrin receptor …); assay: FACS on H292 cells
Method: as §1

[4] = target: T1, human CD71 (transferrin receptor …); assay: FACS on H292 cells; remark: listed apart in the source
Method: In this study, the binding of the antibodies of the present disclosure to the indicated cell lines were performed using a standard FACS labelling method. […] These activatable antibodies include the light chain of the correspondingly named sequence listed above in Table C. The cells were labeled with the indicated test article at the indicated concentrations and subsequently detected with an Alexa Fluor 647 labeled goat anti-human IgG secondary antibody.

[5] = target: T1, human CD71 (transferrin receptor …); assay: FACS on DMS 79 cells
Method: (§2) In this study, the binding of the antibodies and ADCs of the present disclosure to the indicated cell lines were performed using a standard FACS labelling method.

[6] = target: T2, recombinant human CD71 protein (human, UniProt P02786 89-760); assay: ELISA, 1 µg/mL recombinant human CD71
T2 construct: also called recombinant CD71
T2 sequence (P02786 89-760 limits assumed): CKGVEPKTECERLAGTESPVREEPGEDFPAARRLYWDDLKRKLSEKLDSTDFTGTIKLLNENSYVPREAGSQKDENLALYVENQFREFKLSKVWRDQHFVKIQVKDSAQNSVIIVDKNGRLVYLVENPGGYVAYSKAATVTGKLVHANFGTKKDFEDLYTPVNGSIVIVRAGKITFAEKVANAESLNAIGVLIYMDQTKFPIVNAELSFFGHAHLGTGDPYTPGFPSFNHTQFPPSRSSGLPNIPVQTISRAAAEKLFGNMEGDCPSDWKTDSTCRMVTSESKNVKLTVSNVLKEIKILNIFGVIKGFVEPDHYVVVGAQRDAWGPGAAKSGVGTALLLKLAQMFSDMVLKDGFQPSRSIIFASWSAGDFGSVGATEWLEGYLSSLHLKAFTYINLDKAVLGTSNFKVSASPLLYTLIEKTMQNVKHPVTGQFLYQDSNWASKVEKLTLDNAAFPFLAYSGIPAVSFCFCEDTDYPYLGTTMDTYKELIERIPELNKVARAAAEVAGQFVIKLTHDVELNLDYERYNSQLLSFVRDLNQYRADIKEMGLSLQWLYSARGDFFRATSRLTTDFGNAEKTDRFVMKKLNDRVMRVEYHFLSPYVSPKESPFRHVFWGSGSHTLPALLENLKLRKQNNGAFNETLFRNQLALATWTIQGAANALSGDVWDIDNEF
Method: (§3) The amount of bound antibody was detected by incubation and detection by goat anti-human antibody conjugated to horseradish peroxidase and Ultra TMB (Thermo Fisher Scientific) detection.

[7] = target: T2, recombinant human CD71 protein; assay: ELISA, 1 µg/mL recombinant human CD71 (second value)
Method: as §3

[8] = target: T1, human CD71 (transferrin receptor …); assay: FACS on BxPC3 cells; remark: listed apart in the source
Method: as §1

[9] = target: T1, human CD71 (transferrin receptor …); assay: FACS on MDA MB 231 cells
Method: as §1

[10] = target: T2, recombinant human CD71 protein; assay: ELISA, 1 µg/mL CD71 on nickel plates
[11] = target: T1, human CD71 (transferrin receptor …); assay: FACS on HT29 cells
Method: as §1

[12] = target: T3, cynomolgus monkey CD71 on primary kidney epithelial cells (cynomolgus monkey, UniProt H9EXL1 1-760 (rhesus entry)); assay: FACS on cynomolgus monkey primary kidney epithelial cells
T3 construct: whole, on cells; also called cyno CD71
T3 sequence (chain, as listed by the source): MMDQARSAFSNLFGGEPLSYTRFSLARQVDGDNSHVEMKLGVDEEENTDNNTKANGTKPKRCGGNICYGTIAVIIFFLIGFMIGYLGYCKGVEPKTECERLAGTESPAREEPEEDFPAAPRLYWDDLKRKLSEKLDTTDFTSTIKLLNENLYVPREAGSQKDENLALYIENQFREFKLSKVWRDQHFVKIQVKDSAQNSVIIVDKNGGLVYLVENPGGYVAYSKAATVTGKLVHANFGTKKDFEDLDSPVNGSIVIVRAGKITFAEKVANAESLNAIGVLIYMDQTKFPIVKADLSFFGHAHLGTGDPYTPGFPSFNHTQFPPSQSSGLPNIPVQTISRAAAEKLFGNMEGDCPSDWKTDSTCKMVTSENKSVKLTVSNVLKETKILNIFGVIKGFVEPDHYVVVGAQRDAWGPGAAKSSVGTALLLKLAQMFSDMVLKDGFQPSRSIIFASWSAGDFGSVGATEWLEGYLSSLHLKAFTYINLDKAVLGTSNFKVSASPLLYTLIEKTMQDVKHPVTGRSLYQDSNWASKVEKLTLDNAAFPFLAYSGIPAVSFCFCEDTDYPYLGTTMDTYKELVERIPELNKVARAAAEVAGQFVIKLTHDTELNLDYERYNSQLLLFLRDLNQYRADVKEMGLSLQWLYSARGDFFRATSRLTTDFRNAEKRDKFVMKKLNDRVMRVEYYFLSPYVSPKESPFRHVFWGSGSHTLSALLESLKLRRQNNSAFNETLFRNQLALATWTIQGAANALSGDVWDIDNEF
Method: In this study, the binding of the antibody of the present disclosure to the cells were performed using a standard FACS labelling method.

[13] = target: T1, human CD71 (transferrin receptor …); assay: FACS on DMS 153 cells
Method: as §2

[14] = target: T1, human CD71 (transferrin receptor …); assay: FACS on FaDu cells
Method: as §1

[15] = target: T1, human CD71 (transferrin receptor …); assay: FACS on MDA MB 231 cells; remark: listed apart in the source
Method: as §1

[16] = target: T2, recombinant human CD71 protein; assay: ELISA, 1 µg/mL CD71 on copper or nickel plates
Method: as §3

[17] = target: recombinant mouse CD71 (mouse, UniProt Q62351 89-763, limits assumed); assay: ELISA, recombinant CD71 (1 µg/mL) on plates, anti-human IgG-HRP
Sequence of recombinant mouse CD71 (Q62351 89-763 limits assumed): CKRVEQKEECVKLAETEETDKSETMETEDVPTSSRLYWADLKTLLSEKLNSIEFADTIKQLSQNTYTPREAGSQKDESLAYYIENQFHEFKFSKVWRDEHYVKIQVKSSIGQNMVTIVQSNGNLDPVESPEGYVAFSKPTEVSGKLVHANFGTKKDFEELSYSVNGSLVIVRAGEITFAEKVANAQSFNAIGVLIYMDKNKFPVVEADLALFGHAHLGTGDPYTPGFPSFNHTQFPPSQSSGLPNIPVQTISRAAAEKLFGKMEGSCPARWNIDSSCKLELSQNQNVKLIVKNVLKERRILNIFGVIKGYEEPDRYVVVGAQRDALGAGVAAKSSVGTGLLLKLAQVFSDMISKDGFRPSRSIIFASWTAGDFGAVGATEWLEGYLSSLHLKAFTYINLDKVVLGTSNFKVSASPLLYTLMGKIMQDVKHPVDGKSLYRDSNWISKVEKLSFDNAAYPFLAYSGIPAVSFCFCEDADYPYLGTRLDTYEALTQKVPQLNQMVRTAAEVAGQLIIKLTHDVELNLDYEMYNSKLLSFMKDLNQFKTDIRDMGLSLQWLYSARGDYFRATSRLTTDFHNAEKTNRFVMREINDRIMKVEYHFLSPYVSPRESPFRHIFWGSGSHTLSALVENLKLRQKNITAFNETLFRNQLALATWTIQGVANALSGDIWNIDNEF

T1 sequence (P02786 whole entry): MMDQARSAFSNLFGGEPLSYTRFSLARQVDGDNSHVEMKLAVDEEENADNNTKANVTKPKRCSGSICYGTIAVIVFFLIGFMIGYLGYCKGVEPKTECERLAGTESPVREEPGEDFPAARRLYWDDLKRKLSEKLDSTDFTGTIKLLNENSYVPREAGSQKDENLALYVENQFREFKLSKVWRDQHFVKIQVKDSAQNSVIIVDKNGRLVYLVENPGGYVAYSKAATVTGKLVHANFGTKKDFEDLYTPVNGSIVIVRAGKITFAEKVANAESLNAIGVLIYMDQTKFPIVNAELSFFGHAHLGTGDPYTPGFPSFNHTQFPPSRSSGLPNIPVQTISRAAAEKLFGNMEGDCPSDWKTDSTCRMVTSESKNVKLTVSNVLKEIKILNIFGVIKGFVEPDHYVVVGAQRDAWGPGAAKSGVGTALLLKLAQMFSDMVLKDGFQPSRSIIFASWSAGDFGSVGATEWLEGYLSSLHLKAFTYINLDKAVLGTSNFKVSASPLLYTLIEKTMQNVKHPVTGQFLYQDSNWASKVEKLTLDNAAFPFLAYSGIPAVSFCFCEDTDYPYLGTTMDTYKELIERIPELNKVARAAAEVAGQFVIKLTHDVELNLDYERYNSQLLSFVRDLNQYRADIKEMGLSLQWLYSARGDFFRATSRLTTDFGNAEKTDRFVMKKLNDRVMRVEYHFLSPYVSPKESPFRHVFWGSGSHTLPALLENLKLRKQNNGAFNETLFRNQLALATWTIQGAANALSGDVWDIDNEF

- Kd [1]: 5 nM
- Kd [2]: ~3 nM
- Bmax (MFI) [3]: 1820 MFI
- Kd [3]: 1.53 nM
- Kd [4]: 0.441 nM
- Kd [5]: 0.898 nM
- Kd [6]: 0.255 nM
- Kd [7]: 0.162 nM
- Kd [8]: 0.81 nM
- Kd [9]: 1.03 nM
- Kd [10]: 0.3 nM
- Kd [11]: 0.51 nM
- Kd [12]: ~3 nM
- Kd [13]: 4.47 nM
- Kd [14]: 0.39 nM
- Kd [15]: 0.84 nM
- Kd [16]: 0.14 nM
- binding result [17]: no binding
B1: Ab21.12 LcB:HcC (antibody, human IgG1, kappa)
heavy: not shown
light: DIQMTQSPSSLSASVGDRVTITCSASSSVYYMYWFQQKPGKAPKLWIYSTSNLASGVPSRFSGSGSGTDYTLTISSMQPEDFATYYCQQRRNYPYTFGQGTKLEIKRTVAAPSVFIFPPSDEQLKSGTASVVCLLNNFYPREAKVQWKVDNALQSGNSQESVTEQDSKDSTYSLSSTLTLSKADYEKHKVYACEVTHQGLSSPVTKSFNRGEC
